Assay [1] deals with T1, human IL-2 receptor (IL-2Rα, IL-2Rβ, IL-2Rγ) (human, UniProt P01589 22-272; P14784 27-551; P31785 23-369).
T1 sequence (looked up) 1: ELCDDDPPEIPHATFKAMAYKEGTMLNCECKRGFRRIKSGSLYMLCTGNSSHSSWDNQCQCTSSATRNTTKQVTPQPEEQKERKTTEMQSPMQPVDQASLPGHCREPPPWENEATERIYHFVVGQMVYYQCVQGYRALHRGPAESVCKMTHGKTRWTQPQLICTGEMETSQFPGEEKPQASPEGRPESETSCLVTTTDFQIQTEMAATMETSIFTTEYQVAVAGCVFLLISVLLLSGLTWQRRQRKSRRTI
T1 sequence (looked up) 2: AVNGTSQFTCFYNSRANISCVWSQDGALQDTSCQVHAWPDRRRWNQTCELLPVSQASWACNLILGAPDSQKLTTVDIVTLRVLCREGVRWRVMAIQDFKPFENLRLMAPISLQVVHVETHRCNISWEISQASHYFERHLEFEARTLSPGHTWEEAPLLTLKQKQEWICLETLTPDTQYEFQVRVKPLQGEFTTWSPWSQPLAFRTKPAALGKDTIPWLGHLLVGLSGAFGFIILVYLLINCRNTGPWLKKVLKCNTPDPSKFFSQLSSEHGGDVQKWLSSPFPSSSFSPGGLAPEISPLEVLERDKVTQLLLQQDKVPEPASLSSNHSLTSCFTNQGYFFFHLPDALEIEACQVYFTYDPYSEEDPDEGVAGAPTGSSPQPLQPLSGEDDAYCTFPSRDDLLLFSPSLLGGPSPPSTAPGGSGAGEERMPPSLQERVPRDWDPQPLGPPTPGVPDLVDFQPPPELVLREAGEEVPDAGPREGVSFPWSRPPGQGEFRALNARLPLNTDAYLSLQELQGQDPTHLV
T1 sequence (looked up) 3: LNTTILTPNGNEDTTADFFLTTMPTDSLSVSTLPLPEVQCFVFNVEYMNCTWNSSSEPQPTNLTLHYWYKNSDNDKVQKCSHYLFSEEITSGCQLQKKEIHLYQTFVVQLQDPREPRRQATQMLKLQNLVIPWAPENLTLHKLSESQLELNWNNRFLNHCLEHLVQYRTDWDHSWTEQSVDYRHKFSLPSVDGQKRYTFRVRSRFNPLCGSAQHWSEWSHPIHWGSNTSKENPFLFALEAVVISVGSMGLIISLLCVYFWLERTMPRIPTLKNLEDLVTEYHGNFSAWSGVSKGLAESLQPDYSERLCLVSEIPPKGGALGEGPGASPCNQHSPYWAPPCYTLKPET
The assay is described as follows: cell-based or functional assay.

In assay [2] the target is T2, mouse PD-1 (mouse, UniProt Q02242 25-167, limits assumed).
T2 construct: also called mPD-1
T2 sequence (looked up): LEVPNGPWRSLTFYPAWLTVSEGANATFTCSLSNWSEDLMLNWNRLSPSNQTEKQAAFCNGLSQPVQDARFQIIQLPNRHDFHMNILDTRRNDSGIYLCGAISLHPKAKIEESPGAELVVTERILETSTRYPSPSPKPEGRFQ
The experiment in a line: rounded restatement of Tables 14 and 15.

Assay [3] has as its target T3, human PD-1 (human, UniProt Q15116 25-167, limits assumed).
T3 construct: also called hPD-1
The assay is described as follows: rounded restatement of Tables 14 and 15.

The target of assay [4] is T2, mouse PD-1. The experiment in a line: same value as Table 15 (measured in PD-L2-Fc format).
The target in assay [5] is T2, mouse PD-1. The experiment in a line: PD-L2-Fc format, method not stated.
The target in assay [6] is T3, human PD-1. The assay is described as follows: PD-L2-Fc format, method not stated.

Positions count from the first letter of the chain named. Names and notes keep the numbering of the source.

T3 sequence (Q15116 25-167 limits assumed): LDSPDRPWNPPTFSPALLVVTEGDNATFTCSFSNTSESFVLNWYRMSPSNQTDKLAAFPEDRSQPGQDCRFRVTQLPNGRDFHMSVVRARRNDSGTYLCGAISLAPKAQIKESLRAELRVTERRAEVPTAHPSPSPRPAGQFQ

B1: anti-PD-1 antibody nivolumab (Opdivo) (antibody, human IgG4 S228P, kappa, V domains shown)
VH: QVQLVESGGGVVQPGRSLRLDCKASGITFSNSGMHWVRQAPGKGLEWVAVIWYDGSKRYYADSVKGRFTISRDNSKNTLFLQMNSLRAEDTAVYYCATNDDYWGQGTLVTVSS
VL: EIVLTQSPATLSLSPGERATLSCRASQSVSSYLAWYQQKPGQAPRLLIYDASNRATGIPARFSGSGSGTDFTLTISSLEPEDFAVYYCQQSSNWPRTFGQGTKVEIKR
As to B1, the “Percent IL-2 signal transduction (HEK-IL-2 reporter assay)” value in assay [1] was found to be 0%.

B2: IL-12(E59A/F60A)/PD-L2(S58V)-Fc (IL-12 at hinge) (Fc fusion)
chain 1: LFTVTVPKELYIIEHGSNVTLECNFDTGSHVNLGAITAVLQKVENDTSPHRERATLLEEQLPLGKASFHIPQVQVRDEGQYQCIIIYGVAWDYKYLTLKVKASYRKINTHILKVPETDEVELTCQATGYPLAEVSWPNVSVPANTSHSRTPEGLYQVTSVLRLKPPPGRNFSCVFWNTHVRELTLASIDLQSQMEPRTHPTGGGGSGGGIWELKKDVYVVELDWYPDAPGEMVVLTCDTPEEDGITWTLDQSSEVLGSGKTLTIQVKAAGDAGQYTCHKGGEVLSHSLLLLHKKEDGIWSTDILKDQKEPKNKTFLRCEAKNYSGRFTCWWLTTISTDLTFSVKSSRGSSDPQGVTCGAATLSAERVRGDNKEYEYSVECQEDSACPAAEESLPIEVMVDAVHKLKYENYTSSFFIRDIIKPDPPKNLQLKPLKNSRQVEVSWEYPDTWSTPHSYFSLTFCVQVQGKSKREKKDRVFTDKTSATVICRKNASISVRAQDRYYSSSWSEWASVPCSGGGGSGGGSGGGGSRNLPVATPDPGMFPCLHHSQNLLRAVSNMLQKARQTLEFYPCTSEEIDHEDITKDKTSTVEACLPLELTKNESCLNSRETSFITNGSCLASRKTSFMMALCLSSIYEDLKMYQVEFKTMNAKLLMDPKRQIFLDQNMLAVIDELMQALNFNSETVPQKSSLEEPDFYKTKIKLCILLHAFRIRAVTIDRVMSYLNASGGGGSGGGDKTHTCPPCPAPEDEGGPSVFLFPPKPKDTLMISRTPEVTCVVVDVSHEDPEVKFNWYVDGVEVHNAKTKPREEQYNSTYRVVSVLTVLHQDWLNGKEYKCKVSNKALPAPIEKTISKAKGQPREPQVYVYPPSREEMTKNQVSLTCLVKGFYPSDIAVEWESNGQPENNYKTTPPVLDEDGSFALVSKLTVDKSRWQQGNVFSCSVMHEALHNHYTQKSLSLSPGK
chain 2: LFTVTVPKELYIIEHGSNVTLECNFDTGSHVNLGAITAVLQKVENDTSPHRERATLLEEQLPLGKASFHIPQVQVRDEGQYQCIIIYGVAWDYKYLTLKVKASYRKINTHILKVPETDEVELTCQATGYPLAEVSWPNVSVPANTSHSRTPEGLYQVTSVLRLKPPPGRNFSCVFWNTHVRELTLASIDLQSQMEPRTHPTGGGGSGGGDKTHTCPPCPAPEKKGGPSVFLFPPKPKDTLMISRTPEVTCVVVDVSHEDPEVKFNWYVDGVEVHNAKTKPREEQYNSTYRVVSVLTVLHQDWLNGKEYKCKVSNKALPAPIEKTISKAKGQPREPQVYVLPPSREEMTKNQVSLLCLVKGFYPSDIAVEWESNGQPENRYMTWPPVLDSDGSFFLYSKLTVDKSRWQQGNVFSCSVMHEALHNHYTQKSLSLSPGK
notes: also called IL-12(E59A/F60A)/PD-L2(mut2)-Fc
As to B2, the Kd was approximately 100 nM with mouse PD-1 [2], approximately 100 nM in the assay with human PD-1 [3] and 230 nM with mouse PD-1 [4].

B3: PD-L2(wt)-Fc (heterodimer) (Fc fusion)
chain 1: LFTVTVPKELYIIEHGSNVTLECNFDTGSHVNLGAITASLQKVENDTSPHRERATLLEEQLPLGKASFHIPQVQVRDEGQYQCIIIYGVAWDYKYLTLKVKASYRKINTHILKVPETDEVELTCQATGYPLAEVSWPNVSVPANTSHSRTPEGLYQVTSVLRLKPPPGRNFSCVFWNTHVRELTLASIDLQSQMEPRTHPTDKTHTCPPCPAPEDEGGPSVFLFPPKPKDTLMISRTPEVTCVVVDVSHEDPEVKFNWYVDGVEVHNAKTKPREEQYNSTYRVVSVLTVLHQDWLNGKEYKCKVSNKALPAPIEKTISKAKGQPREPQVYVYPPSREEMTKNQVSLTCLVKGFYPSDIAVEWESNGQPENNYKTTPPVLDEDGSFALVSKLTVDKSRWQQGNVFSCSVMHEALHNHYTQKSLSLSPGK
chain 2: B3 chain 1 with D215K, E216K, Y332L, T347L, N371R, K373M, T375W, E381S, A386F, V388Y
On to B3, for which the Kd in the assay with mouse PD-1 [5] was 980 nM; in the assay with human PD-1 [6], 1200 nM.

B4: IL-12(E59A/F60A)/PD-L2(WT)-Fc (Fc fusion)
chain 1: LFTVTVPKELYIIEHGSNVTLECNFDTGSHVNLGAITASLQKVENDTSPHRERATLLEEQLPLGKASFHIPQVQVRDEGQYQCIIIYGVAWDYKYLTLKVKASYRKINTHILKVPETDEVELTCQATGYPLAEVSWPNVSVPANTSHSRTPEGLYQVTSVLRLKPPPGRNFSCVFWNTHVRELTLASIDLQSQMEPRTHPTGSGIWELKKDVYVVELDWYPDAPGEMVVLTCDTPEEDGITWTLDQSSEVLGSGKTLTIQVKAAGDAGQYTCHKGGEVLSHSLLLLHKKEDGIWSTDILKDQKEPKNKTFLRCEAKNYSGRFTCWWLTTISTDLTFSVKSSRGSSDPQGVTCGAATLSAERVRGDNKEYEYSVECQEDSACPAAEESLPIEVMVDAVHKLKYENYTSSFFIRDIIKPDPPKNLQLKPLKNSRQVEVSWEYPDTWSTPHSYFSLTFCVQVQGKSKREKKDRVFTDKTSATVICRKNASISVRAQDRYYSSSWSEWASVPCSGGGGSGGGGSGGGGSGGGGSGRNLPVATPDPGMFPCLHHSQNLLRAVSNMLQKARQTLEFYPCTSEEIDHEDITKDKTSTVEACLPLELTKNESCLNSRETSFITNGSCLASRKTSFMMALCLSSIYEDLKMYQVEFKTMNAKLLMDPKRQIFLDQNMLAVIDELMQALNFNSETVPQKSSLEEPDFYKTKIKLCILLHAFRIRAVTIDRVMSYLNASDKTHTCPPCPAPEDEGGPSVFLFPPKPKDTLMISRTPEVTCVVVDVSHEDPEVKFNWYVDGVEVHNAKTKPREEQYNSTYRVVSVLTVLHQDWLNGKEYKCKVSNKALPAPIEKTISKAKGQPREPQVYVYPPSREEMTKNQVSLTCLVKGFYPSDIAVEWESNGQPENNYKTTPPVLDEDGSFALVSKLTVDKSRWQQGNVFSCSVMHEALHNHYTQKSLSLSPGK
chain 2: LFTVTVPKELYIIEHGSNVTLECNFDTGSHVNLGAITASLQKVENDTSPHRERATLLEEQLPLGKASFHIPQVQVRDEGQYQCIIIYGVAWDYKYLTLKVKASYRKINTHILKVPETDEVELTCQATGYPLAEVSWPNVSVPANTSHSRTPEGLYQVTSVLRLKPPPGRNFSCVFWNTHVRELTLASIDLQSQMEPRTHPTGSGDKTHTCPPCPAPEKKGGPSVFLFPPKPKDTLMISRTPEVTCVVVDVSHEDPEVKFNWYVDGVEVHNAKTKPREEQYNSTYRVVSVLTVLHQDWLNGKEYKCKVSNKALPAPIEKTISKAKGQPREPQVYVLPPSREEMTKNQVSLLCLVKGFYPSDIAVEWESNGQPENRYMTWPPVLDSDGSFFLYSKLTVDKSRWQQGNVFSCSVMHEALHNHYTQKSLSLSPGK
notes: also called IL-12(E59A/F60A)/PD-L2-Fc; construct #29
For the molecule B4, binding in the assay with mouse PD-1 [4] was characterised by a dissociation constant (Kd) of 980 nM.

The values above are taken from patent US20240392004A1 (IMMUNOWAKE, published 2024).
